This passage reports fraction ligated results from the supplement of paper PMC6755084.

B1: F1*; the commonest letter at each place (parent)
chain: GAGACCGCAACTGAAAAGTTGTTATCACTTGTCGTAAGACACTTTGGATGGGTTGAAGTTCTGCACGTAGAAGCAAAAGGC

In the data set the parent is B1. The data set is described as follows: fraction ligated after 30 min (ligated reads / total reads); higher = more ligase activity. Conditions: with F1*sub RNA substrate (template-directed ligation), 42 °C. The procedure, abridged:
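Templates from an oligo pool were PCR-amplified, transcribed with T7 and gel-purified to give the ribozyme variants. Ligated and unligated products were separated on gel, reverse transcribed using barcoded primers, and read on a MiSeq. A quality filter of ≥20 was applied to core bases. Fraction ligated was taken as ligated reads as a share of all reads per variant.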
On to GAGACCGCAACTGAAAAGTTGTTATCACTCGTCGTAAGAGACTTTGGATGGGTTGAAGTTCTGCACGTAGAAGCAAAAGGC [T30C C40G], for which the fraction ligated was 0.828.

On to GAGACCGCAACTGAAAAGTTGTTATCACTCGTCGTAAGATACTTTGGATGGGTTGAAGTTCTGCACGTAGAAGCAAAAGGC [T30C C40T], for which the fraction ligated was 0.808.

For GAGACCGCAACTGAAAAGTTGTTATCACTCGTCGTAACACACTTTGGATGGGTTGAAGTTCTGCACGTAGAAGCAAAAGGC [T30C G38C], the fraction ligated stood at 0.78.

Turning to GAGACCGCAACTGAAAAGTTGTTATCACTCGTCGTAATACACTTTGGATGGGTTGAAGTTCTGCACGTAGAAGCAAAAGGC [T30C G38T], the fraction ligated came to 0.795.

As for GAGACCGCAACTGAAAAGTTGTTATCACTCGTCGTAAAACACTTTGGATGGGTTGAAGTTCTGCACGTAGAAGCAAAAGGC [T30C G38A], the fraction ligated stood at 0.797.

GAGACCGCAACTGAAAAGTTGTTATCACTCGTCGTAAGACACTTTGTATGGGTTGAAGTTCTGCACGTAGAAGCAAAAGGC [T30C G47T]: the fraction ligated came to 0.358.

GAGACCGCAACTGAAAAGTTGTTATCACTCGTCGTAAGACACTTTGAATGGGTTGAAGTTCTGCACGTAGAAGCAAAAGGC [T30C G47A]: the fraction ligated was 0.798.

Turning to GAGACCGCAACTGAAAAGTTGTTATCACTCGTCGTAAGACACTTTGCATGGGTTGAAGTTCTGCACGTAGAAGCAAAAGGC [T30C G47C], the fraction ligated was found to be 0.0928.

With GAGACCGCAACTGAAAAGTTGTTATCACTCGTCGTAAGACACTTTGGATGGGTTCAAGTTCTGCACGTAGAAGCAAAAGGC [T30C G55C], the fraction ligated came to 0.504.

As for GAGACCGCAACTGAAAAGTTGTTATCACTCGTCGTAAGACACTTTGGATGGGTTTAAGTTCTGCACGTAGAAGCAAAAGGC [T30C G55T], the fraction ligated amounted to 0.757.

For GAGACCGCAACTGAAAAGTTGTTATCACTCGTCGTAAGACACTTTGGATGGGTTAAAGTTCTGCACGTAGAAGCAAAAGGC [T30C G55A], the fraction ligated stood at 0.81.

Turning to GAGACCGCAACTGAAAAGTTGTTATCACTCCCGGTAACGGGCTTTGGATGGGTTGAAGTTCTGCACGTAGAAGCAAAAGGC [T30C G31C T32C C33G G38C A39G C40G A41G], the fraction ligated was determined as 0.892.

Regarding GAGACCGCAACTGAAAAGTTGTTATCACTGGTCGTAAGACACTTTGGGTGGGTTGAAGTTCTGCACGTAGAAGCAAAAGGC [T30G A48G], the fraction ligated was 0.791.

For GAGACCGCAACTGAAAAGTTGTTATCACTGGTCGTAAGACACTTTGGCTGGGTTGAAGTTCTGCACGTAGAAGCAAAAGGC [T30G A48C], the fraction ligated was found to be 0.761.

On to GAGACCGCAACTGAAAAGTTGTTATCACTCGTCGAAAGACACTTTGGATGGGTTGAAGTTCTGCACGTAGAAGCAAAAGGC [T30C T35A], for which the fraction ligated was 0.796.

Regarding GAGACCGCAACTGAAAAGTTGTTATCACTCGTCGCAAGACACTTTGGATGGGTTGAAGTTCTGCACGTAGAAGCAAAAGGC [T30C T35C], the fraction ligated came to 0.824.

As to GAGACCGCAACTGAAAAGTTGTTATCACTCGTCGGAAGACACTTTGGATGGGTTGAAGTTCTGCACGTAGAAGCAAAAGGC [T30C T35G], the fraction ligated is 0.795.

For the variant GAGACCGCAACTGAAAAGTTGTTATCACTCGTCGTAAGACACTGTGGATGGGTTGAAGTTCTGCACGTAGAAGCAAAAGGC [T30C T44G], the fraction ligated amounted to 0.812.

With GAGACCGCAACTGAAAAGTTGTTATCACTCGTCGTAAGACACTCTGGATGGGTTGAAGTTCTGCACGTAGAAGCAAAAGGC [T30C T44C], the fraction ligated was determined as 0.803.

Turning to GAGACCGCAACTGAAAAGTTGTTATCACTCGTCGTAAGACACTATGGATGGGTTGAAGTTCTGCACGTAGAAGCAAAAGGC [T30C T44A], the fraction ligated worked out at 0.807.

On to GAGACCGCAACTGAAAAGTTGTTATCACTGGTCGTACGACACTTTGGATGGGTTGAAGTTCTGCACGTAGAAGCAAAAGGC [T30G A37C], for which the fraction ligated amounted to 0.849.

GAGACCGCAACTGAAAAGTTGTTATCACTGGTCGTAGGACACTTTGGATGGGTTGAAGTTCTGCACGTAGAAGCAAAAGGC [T30G A37G]: the fraction ligated came out at 0.852.

In the case of GAGACCGCAACTGAAAAGTTGTTATCACTGGTCGTATGACACTTTGGATGGGTTGAAGTTCTGCACGTAGAAGCAAAAGGC [T30G A37T], the fraction ligated was determined as 0.86.

In the case of GAGACCGCAACTGAAAAGTTGTTATCACTCGTCGTAAGACACTTTGGAGGGGTTGAAGTTCTGCACGTAGAAGCAAAAGGC [T30C T49G], the fraction ligated stood at 0.485.

GAGACCGCAACTGAAAAGTTGTTATCACTCGTCGTAAGACACTTTGGAAGGGTTGAAGTTCTGCACGTAGAAGCAAAAGGC [T30C T49A]: the fraction ligated came to 0.575.

As to GAGACCGCAACTGAAAAGTTGTTATCACTCGTCGTAAGACACTTTGGACGGGTTGAAGTTCTGCACGTAGAAGCAAAAGGC [T30C T49C], the fraction ligated amounted to 0.0166.

On to GAGACCGCAACTGAAAAGTTGTTATCACTCCCCGTAAGGGGCTTTGGATGGGTTGAAGTTCTGCACGTAGAAGCAAAAGGC [T30C G31C T32C A39G C40G A41G], for which the fraction ligated is 0.867.

Regarding GAGACCGCAACTGAAAAGTTGTTATCACTCGTCGTAAGACACCTTGGATGGGTTGAAGTTCTGCACGTAGAAGCAAAAGGC [T30C T43C], the fraction ligated was 0.788.

Turning to GAGACCGCAACTGAAAAGTTGTTATCACTCGTCGTAAGACACATTGGATGGGTTGAAGTTCTGCACGTAGAAGCAAAAGGC [T30C T43A], the fraction ligated was 0.809.

Take GAGACCGCAACTGAAAAGTTGTTATCACTCGTCGTAAGACACGTTGGATGGGTTGAAGTTCTGCACGTAGAAGCAAAAGGC [T30C T43G]: the fraction ligated came to 0.768.

Turning to GAGACCGCAACTGAAAAGTTGTTATCACTCGCCGTAAGGCGCTTTGGATGGGTTGAAGTTCTGCACGTAGAAGCAAAAGGC [T30C T32C A39G A41G], the fraction ligated came to 0.816.

Regarding GAGACCGCAACTGAAAAGTTGTTATCACTCGTCGTAAGACACTTTGGATAGGTTGAAGTTCTGCACGTAGAAGCAAAAGGC [T30C G50A], the fraction ligated was 0.175.

For the variant GAGACCGCAACTGAAAAGTTGTTATCACTCGTCGTAAGACACTTTGGATCGGTTGAAGTTCTGCACGTAGAAGCAAAAGGC [T30C G50C], the fraction ligated worked out at 0.107.

Turning to GAGACCGCAACTGAAAAGTTGTTATCACTCGTCGTAAGACACTTTGGATTGGTTGAAGTTCTGCACGTAGAAGCAAAAGGC [T30C G50T], the fraction ligated stood at 0.452.
